{"source": "patent US7732592B2", "about": "“ALK protein tyrosine kinase, cells and methods embodying and using same” (New York University, priority 2003, dated 2010)", "key": {"ALK receptor (ALK-R)": {"system": "ALK receptor (ALK-R)", "test": "Co-transfection of pSUPER shRNA vectors with Pallino ALK-R in HEK-293T cells, Western blot", "type": "cell-based", "conditions": "transfected HEK-293T cells", "protocol": "(§1) FIG. 8. Selection of anti-ALK shRNA. […] HEK-293T were co-transfected with Pallino NPM-ALK (2 μg) and one of six different pSUPER vectors carrying shRNA specific for ALK sequences (pS-A1-6)(8 μg). Cells were lysed 72 hours post-transfection and immunoblotted with the indicated antibodies. −=no transfection; A pSUPER-shRNA carrying a p53 specific sequence was used a unrelated control. (pS-p53) (B) ALK5 (A5) inhibits ATIC-ALK protein expression. HEK-293T were co-transfected with Pallino ATIC-ALK and pSUPER-ALK shRNA interfering sequences as above. Expression of ATIC-ALK protein was determined by Western blot analysis as described above. (C) ALK5 (A5) inhibits ALK receptor (ALK-R) protein expression. HEK-293T cells were co-transfected with Pallino ALK-R and pSUPER-ALK shRNA interfering sequences as above.\n(§2) Transfections of HEK-293T, GP-293, and MEF Tet-Off cells were performed with Effectene reagent (Qiagen, Valencia, Calif., USA), according to the manufacturer's instructions.\n(§3) For Western Blot analysis, cells were lysed (50 mM Tris-HCl, pH 7.4, 150 mM NaCl, 0.1% Triton X-100, 5 mM EDTA, 1 mM Na3VO4, and 1 mM phenylmethyl sulfonyl fluoride and protease inhibitors). Total protein lysates (20 μg) were electrophoresed in SDS-PAGE gel and transferred onto nitrocellulose membranes. […]"}, "NPM-ALK [1]": {"system": "NPM-ALK", "test": "Co-transfection of pSUPER shRNA vectors with Pallino-NPM-ALK in HEK-293T cells, Western blot", "type": "cell-based", "conditions": "HEK-293T co-transfected with Pallino-NPM-ALK; after 48 hrs from transfection", "protocol": "as §1, with “Cells were lysed 72 hours post-transfection and immunoblotted with the indicated antibodies. −=no transfection; A pSUPER-shRNA carrying a p53 specific sequence was used a unrelated control.” left out\nas §2\nas §3, with “membranes. The filters were first blocked (5% low fat milk in PBS with 0.1% Tween 20; 1 h at RT), and then incubated with the primary antibodies for 1 hour at room temperature.” for “membranes.”"}, "ATIC-ALK": {"system": "ATIC-ALK", "test": "Co-transfection of pSUPER shRNA vectors with Pallino ATIC-ALK in HEK-293T cells, Western blot", "type": "cell-based", "conditions": "transfected HEK-293T cells", "protocol": "as §1, §2, §3"}, "MEF-NPM-ALK cells": {"system": "MEF-NPM-ALK cells", "test": "Morphology of MEF-NPM-ALK cells after infection", "type": "cell-based", "source_text": "Since NPM-ALK expression in MEF cells leads to relevant morphological changes including cell elongation, bipolarized formations and loose plate attachment, the effect of inhibition of NPM-ALK expression on the phenotype of these cells was then studied. […] Furthermore, highly enriched GFP^+, puromycin resistant pSRG-A5MEF-NPM-ALK cells injected into athymic Nu/Nu mice (1×10^6 cells) grew poorly compared to control infected cells (FIG. 9 D)."}, "TS cells": {"system": "TS cells", "test": "Cell death of sorted GFP-positive TS cells by microscopy", "type": "cell-based, human", "conditions": "sorted TS cells (>95% GFP), 24 hr after cell sorting", "protocol": "FIG. 11. Anti-ALK siRNA inhibits growth and induces cell death in TS cells. ShRNA A5 leads ALK+ ALCL cells to cell death. Human TS cells were transduced with pSRG or pSRG-A5 constructs, and […], GFP-positive cells were sorted using MoFo sorter. (A) Highly enriched GFP+ cells (>95%) were evaluated (24 hours after sorting) using a light or fluorescent inverted microscope, (bright field: left panels). 5×10^3/well cells were plated (96-well plate) and the percentage of alive cells was calculated overtime (B). Total number of live cells was also calculated at day 3, 4 and 6 after sorting (C).\nTo study whether ALK siRNA could promote cell death, highly enriched A5-GFP-positive TS cells by cell sorting (>95% GFP) were evaluated by microscopy. […] These findings were confirmed with enumeration of viable cells by trypan blue exclusion (FIG. 11B) and proliferating cell quantitation using total cell counts (FIG. 11C)."}, "NPM-ALK [2]": {"system": "NPM-ALK", "test": "NPM-ALK protein expression in MEF NPM-ALK Tet-Off cells after retroviral infection, Western blot", "type": "cell-based", "protocol": "FIG. 9. Anti-ALK siRNA inhibits NPM-ALK-mediated transformation of MEF cells. (A) Suppression of NPM-ALK expression leads to down-regulation of known downstream targets of ALK. MEF NPM-ALK Tet-Off cells were infected with pSRG-A5 virus, transduction efficiency was assessed 72 hours post-infection by FACS analysis of GFP (40%). pSRG-A5-infected cells were further enriched by selection with 1 mg/ml puromycin for 1 week (90%). NPM-ALK expression was inhibited by doxycyclin withdrawn. Protein expression was evaluated culturing (72 hr) semi-confluent cells in absence of doxycyclin. (B) shRNA A-5 expression leads to G0/G1 cell cycle arrest. DNA content analysis was performed in cells grown to confluence and kept in 0.2% serum medium for 72 hours in presence of absence of doxycyclin. Cells were then listed and analysed by Western blotting with indicated antibodies. […] Tumor growth was monitored weekly for 4 weeks. […]\nRetroviral supernatants were produced by co-transfection of GP-293 packaging cells with pSRGAx and pVSV-G (Clontech, Palo Alto, Calif., USA); virus-containing supernatants were collected at 48, 72 and 90 hours, filtrated and concentrated by centrifugation. […] Transfection and infection efficiencies were calculated using the percentage of GFP positive cells, identified using fluorescence microscopy (Leica IM RE2) or flow cytometry (FACSCalibur, BD Biosciences, San Josè, Calif., USA). […]"}}, "data": [{"molecule": "A5: short hairpin oligonucleotide against cytoplasmic domain of ALK, SEQ ID NO: 5; in pSUPER vector (nucleic acid) GATCCCCGGGCGAGCTACTATAGAAATTCAAGAGATTTCTATAGTAGCTCGCCCTTTTTGGAAA", "values": [{"measurement": "expression of ALK receptor", "setting": "ALK receptor (ALK-R)", "value": "successfully abrogate expression"}, {"measurement": "down-regulation of the protein level of NPM-ALK", "setting": "NPM-ALK [1]", "value": "> 90", "unit": "%"}, {"measurement": "expression of ATIC-ALK", "setting": "ATIC-ALK", "value": "successfully abrogate expression"}, {"measurement": "cellular morphology (transformed phenotype)", "setting": "MEF-NPM-ALK cells", "value": "regained their normal pre-transformed cellular features"}, {"measurement": "cells with shrunken, picnotic nuclei lacking detectable GFP expression", "setting": "TS cells", "value": "> 50", "unit": "%"}, {"measurement": "NPM-ALK protein expression", "setting": "NPM-ALK [2]; MEF NPM-ALK Tet-Off after doxycyclin withdrawal, proportional to percentage of GFP positive cells", "value": "significant down-regulation"}, {"measurement": "NPM-ALK level in MEF-NPM-ALK cells after infection", "setting": "NPM-ALK [2]; MEF-NPM-ALK cells", "value": "very low levels"}]}]}
